Results from patent publication US20230272035A1 (VYCELLIX, published 2023).

T1: CD45 (receptor-type tyrosine-protein phosphatase C, PTPRC) (Homo sapiens, UniProt P08575 26-1306)
T1 construct: In the lysis assays CD45 is the endogenous protein on human PBMCs or NK92 effector cells; also called all isoforms of CD45
T1 sequence: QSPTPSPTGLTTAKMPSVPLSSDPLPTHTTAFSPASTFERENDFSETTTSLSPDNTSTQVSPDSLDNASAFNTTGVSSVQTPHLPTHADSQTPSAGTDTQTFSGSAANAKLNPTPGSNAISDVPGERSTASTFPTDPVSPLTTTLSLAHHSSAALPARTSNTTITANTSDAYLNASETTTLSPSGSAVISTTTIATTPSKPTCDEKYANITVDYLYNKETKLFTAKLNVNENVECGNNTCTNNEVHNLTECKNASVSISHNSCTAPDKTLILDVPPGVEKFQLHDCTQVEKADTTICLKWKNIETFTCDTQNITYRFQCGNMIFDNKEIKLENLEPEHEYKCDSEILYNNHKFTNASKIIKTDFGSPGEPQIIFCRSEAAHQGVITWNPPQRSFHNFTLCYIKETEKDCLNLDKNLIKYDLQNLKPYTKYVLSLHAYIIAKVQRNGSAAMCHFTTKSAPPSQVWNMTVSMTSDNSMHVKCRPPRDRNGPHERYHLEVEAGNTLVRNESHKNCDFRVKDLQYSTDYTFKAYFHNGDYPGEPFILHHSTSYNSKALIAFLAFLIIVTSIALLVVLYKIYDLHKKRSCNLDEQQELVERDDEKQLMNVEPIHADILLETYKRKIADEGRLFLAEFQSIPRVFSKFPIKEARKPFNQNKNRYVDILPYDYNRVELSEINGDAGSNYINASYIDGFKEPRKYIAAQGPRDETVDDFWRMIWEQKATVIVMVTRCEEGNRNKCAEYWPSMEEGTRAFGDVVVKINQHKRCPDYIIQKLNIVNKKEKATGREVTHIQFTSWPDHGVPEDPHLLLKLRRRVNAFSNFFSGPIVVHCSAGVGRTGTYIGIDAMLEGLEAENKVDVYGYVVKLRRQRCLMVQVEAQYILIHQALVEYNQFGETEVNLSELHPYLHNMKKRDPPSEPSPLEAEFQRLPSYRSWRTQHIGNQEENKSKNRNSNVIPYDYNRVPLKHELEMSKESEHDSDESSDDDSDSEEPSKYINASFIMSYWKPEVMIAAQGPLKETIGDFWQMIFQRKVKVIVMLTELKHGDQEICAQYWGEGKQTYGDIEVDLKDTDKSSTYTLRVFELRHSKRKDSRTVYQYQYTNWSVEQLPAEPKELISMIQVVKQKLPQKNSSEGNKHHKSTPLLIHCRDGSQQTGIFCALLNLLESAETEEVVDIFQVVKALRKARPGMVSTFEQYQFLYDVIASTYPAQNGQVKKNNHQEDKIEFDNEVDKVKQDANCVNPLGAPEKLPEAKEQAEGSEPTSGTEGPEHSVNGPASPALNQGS


Biological target: T1, CD45 (receptor-type tyrosine-protein …)
Experiment: not described; same paragraph: immunoprecipitation studies reveal a physical interaction

| Binder | binding result |
| --- | --- |
| HCMV (Merlin strain; HHV5) protein UL11 (other, also called ULll) CIPVVGKIGTNVTLNAVDVLPPRDQVRWSYGPGGQGYMLCIFTGTSTTTFNNTRFNFSCLSNYSLLLINVTTQYSTTYRTMTSLDHWLHQRHNHGSRWTLDTCYNLTVNENGTFPTTTTKKPTTTTRTTTTTTQRTTTTRTTTTAKKTTISTTHHKHPSPKKSTTPNSHVEHHVGFEATAAETPLQPSPQHQHLATHALWVLAVVIVIIIIIIFYFRIPQKLWLLWQHDKHGIVLIPQTDL | binds |
| a-CD45-sc (membrane-bound anti-CD45 single chain antibody with CD8a/CD28 stalk and CD34 transmembrane region) (scFv, The molecule was expressed on the surface of K562 target cells; also called anti-CD45-sc; ai-CD45-sc) scFv: QVQLVESGGGLVQPGGSLKLSCAASGFDFSRYWMSWVRQAPGKGLEWIGEINPTSSTINFTPSLKDKVFISRDNAKNTLYLQMSKVRSEDTALYYCARGNYYRYGDAMDYWGQGTSVTVSKISGGGGSGGGGSGGGGSGGGGSGGGGSSDIVLTQSPASLAVSLGQRATISCRASKSVSTSGYSYLHWYQQKPGQPPKLLIYLASNLESGVPARFSGSGSGTDFTLNIHPVEEEDAATYYCQHSRELPFTFGSGTKLEIKSSGSGSPTTTPAPRPPTPAPTIASQPLSLRPEACRPAAGGAVHTRGLDFAPRKIEVMYPPPYLDNEKSNGTIIHVKGKHLCPSPLFPGPSKPTLIALVTSGALLAVLGITGYFL | binds |
